From publication PMC6702080 (2019)

Biological target: T1, BolA2 (Homo sapiens, UniProt Q9H3K6)
T1 chain: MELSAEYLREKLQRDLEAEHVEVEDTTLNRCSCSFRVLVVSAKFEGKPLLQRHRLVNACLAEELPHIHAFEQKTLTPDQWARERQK
Assay: pull-down

B1: PCBP1 KH3 (protein)
chain: ASTQTTHELTIPNNLIGCIIGRQGANINEIRQMSGAQIKIANPVEGSSGRQVTITGSAASISLAQYLINAR
modifications: Fe(II)+GSH
  Kd: 900 nM
